Measurements reported in patent US20220298235A1 (AKESO BIOPHARMA, published 2022).

Experiments:
Human IL12 (His Tag) [1] = target: T1, Human IL12 (His Tag) (human, UniProt P29459 23-219; P29460 23-328); test: FACS competition, IL-12-His 20 nM on 293T-IL-12Rβ1&IL-23R cells
T1 construct: Bought His-tagged heterodimer
T1 sequence (looked up) 1: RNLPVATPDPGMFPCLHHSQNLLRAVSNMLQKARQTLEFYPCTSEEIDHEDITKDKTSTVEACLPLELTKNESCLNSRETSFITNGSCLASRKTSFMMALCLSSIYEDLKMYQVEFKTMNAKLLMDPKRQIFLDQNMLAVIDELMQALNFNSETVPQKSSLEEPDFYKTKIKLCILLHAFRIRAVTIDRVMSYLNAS
T1 sequence (looked up) 2: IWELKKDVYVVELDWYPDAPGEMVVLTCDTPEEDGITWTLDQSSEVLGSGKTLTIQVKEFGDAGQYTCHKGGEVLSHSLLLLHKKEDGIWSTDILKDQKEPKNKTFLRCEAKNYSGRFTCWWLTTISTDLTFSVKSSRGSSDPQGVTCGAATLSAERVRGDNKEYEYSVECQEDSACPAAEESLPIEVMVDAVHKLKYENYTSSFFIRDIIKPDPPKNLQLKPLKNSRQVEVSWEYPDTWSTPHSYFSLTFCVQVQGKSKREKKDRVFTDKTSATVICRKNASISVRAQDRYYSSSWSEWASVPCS
Experimental: (§1) 200 μL of 1% PBSA was added into each sample, and the mixture was centrifuged at 700×g for 5 min to discard the supernatant. According to experiment design, correspondingly diluted antibody (highest final concentration of 30 μg/mL, 3-fold dilution, 8 concentrations in total) and human IL-12 (Sino Biological, Cat. No.: CT-050-H08H-20) (final concentration of 20 nM) were mixed at a ratio of 1:1, and a blank control was set. The mixture of antibody and human IL12 was incubated on ice for 30 min and then added to the cell precipitate at 100 μL/sample. The resulting mixture was well mixed and incubated on ice for 60 min 200 μL of 1% PBSA was added, and the mixture was centrifuged at 700×g for 5 min to discard the supernatant, and then washed twice. Alexa Fluor® 488 anti-His tag antibody (Biolegend, Cat. No.: 652509) was diluted at a ratio of 1:400 and added to each tube at 100 μL. The mixture was well mixed and incubated on ice for 40 min in the absence of light. 200 μL of 1% PBSA was added, and the mixture was centrifuged at 700×g for 5 min to discard the supernatant, and then washed twice. 1% PBSA was added at 200 μL/tube, and the cells were resuspended and transferred to a flow cytometry tube for testing.

Human IL12 (His Tag) [2] = target: T1, Human IL12 (His Tag); test: FACS competition, IL-12-His 20 nM on 293T-IL-12Rβ1&IL-23R cells; antibody 0.12 µg/mL
Experimental: as §1

Human IL12 (His Tag) [3] = target: T1, Human IL12 (His Tag); test: FACS competition, IL-12-His 20 nM on 293T-IL-12Rβ1&IL-23R cells; antibody 3.33 µg/mL
Experimental: as §1

Human IL12 (His Tag) [4] = target: T1, Human IL12 (His Tag); test: FACS competition, IL-12-His 20 nM on 293T-IL-12Rβ1&IL-23R cells; antibody 1.11 µg/mL
Experimental: as §1

human p40-His [5] = target: T2, human p40-His (human, UniProt P29460 23-328); test: indirect ELISA, p40-His coat 0.125 µg/mL
T2 construct: Made by Akeso Biopharma; construct limits and tag not described; also called human IL-12/IL-23 p40 protein domain; human IL-12/IL-23 p40; not shown: His tag
T2 sequence (looked up): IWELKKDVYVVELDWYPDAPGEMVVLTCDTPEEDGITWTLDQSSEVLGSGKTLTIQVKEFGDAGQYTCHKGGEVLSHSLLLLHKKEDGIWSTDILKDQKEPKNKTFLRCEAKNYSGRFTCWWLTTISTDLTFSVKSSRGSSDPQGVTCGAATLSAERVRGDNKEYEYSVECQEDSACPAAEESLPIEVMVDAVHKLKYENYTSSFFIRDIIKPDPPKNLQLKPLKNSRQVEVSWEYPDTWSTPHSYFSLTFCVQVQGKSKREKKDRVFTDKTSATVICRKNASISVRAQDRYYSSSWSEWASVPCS
Experimental: (§2) A microplate was coated with human p40-His (Akeso Biopharma, Inc.; gene of p40: GeneBank NM002187). After incubation at 4° C. for no less than 12 h, the plate was washed with PBST, patted dry and blocked with a solution of 1% BSA in PBS. After blocking was completed, the plate was washed with PBST and patted dry. The antibody diluted with PBST solution in gradient was added into the wells of the plate, and the antibody dilution gradient is detailed in Table 1. The plate containing the test antibody was incubated at 37° C. for 30 min and then washed with PBST and patted dry. […] TMB (Neogen, 308177) was added for color developing for 5 min in the absence of light, and then stop solution was added to terminate the chromogenic reaction. Then the plate was put into a plate reader immediately, and the OD value of each well in the plate was read at 450 nm. The data were analyzed by SoftMax Pro 6.2.1.
(§3) The binding EC₅₀ of antibody was calculated by curve fitting using antibody concentration as the abscissa and absorbance value as the ordinate, and the results are shown in Table 1 below.

human p40-His [6] = target: T2, human p40-His; test: indirect ELISA, p40-His coat 0.125 µg/mL; remark: listed apart in the source
Experimental: as §2
as §3, with “The detection results of the binding of antibodies H5L11, H5L12, H5L14 and Ab123FR1 to the antigen human p40-His are shown in FIG. 3. The” for “The”, “3” for “1”

human p40-His [7] = target: T2, human p40-His; test: indirect ELISA, p40-His coat 0.25 µg/mL
Experimental: as §2
The binding EC₅₀ of antibody was calculated by curve fitting using antibody concentration as the abscissa and absorbance value as the ordinate, and the results are shown in Table 4 below.

B1: H5L10 (antibody, human IgG1, kappa, V domains shown)
VH: EVQLVQSGAEVKKPGESLKISCQSSGYSFTTYWIGWVRQMPGQGLEWIGIMSPVDSDIRYNPMFRGQVTMSVDKSSSTAYLQWSSLKASDTAMYYCARRRPGQGYFDFWGQGTMVTVSS
VL: EIVLTQSPATLSASPGERATISCRASQSVGSWLAWYQQKPGQAPRSLIYAASNLQSGIPARFSGSGSGTDFTLTISSLEPEDFAVYYCQQYNIYPYTFGQGTRLEIKR
notes: human IgG1 / kappa constant regions; also called humanized antibody H5L10
- EC50 (Human IL12 (His Tag) [1]): 0.331 µg/mL
- MFI (Human IL12 (His Tag) [2]): 151 MFI
- MFI (Human IL12 (His Tag) [3]): 40.2 MFI
- MFI (Human IL12 (His Tag) [4]): 44.6 MFI

B2: H5L9 (antibody, human IgG1, kappa, V domains shown)
VH: EVQLVQSGAEVKKPGESLKISCQSSGYSFTTYWIGWVRQMPGQGLEWIGIMSPVDSDIRYNPMFRGQVTMSVDKSSSTAYLQWSSLKASDTAMYYCARRRPGQGYFDFWGQGTMVTVSS
VL: DIQMTQSPSSLSASVGDRVTITCKASQNVGSWLAWYQQKPGKAPKSLIYSASSRQSGVPSRFSGSGSGTDFTLTISSLQPEDFATYYCQQYDIYPFTFGQGTKLEIKR
notes: human IgG1 (P01857) / kappa (P01834) constant regions; also called humanized antibody H5L9
- MFI (Human IL12 (His Tag) [2]): 160 MFI
- MFI (Human IL12 (His Tag) [3]): 146 MFI
- MFI (Human IL12 (His Tag) [4]): 157 MFI
- EC50 (human p40-His [5]): 0.079 nM

B3: H5L14 (antibody, human IgG1, kappa, V domains shown)
VH: EVQLVQSGAEVKKPGESLKISCQSSGYSFTTYWIGWVRQMPGQGLEWIGIMSPVDSDIRYNPMFRGQVTMSVDKSSSTAYLQWSSLKASDTAMYYCARRRPGQGYFDFWGQGTMVTVSS
VL: EIVLTQSPATLSASPGERATISCRASQSVSSWLAWYQQKPGQAPRSLIYAASNLQSGIPARFSGSGSGTDFTLTISSLEPEDFAVYYCQQYNIYPFTFGQGTRLEIKR
notes: human IgG1 / kappa constant regions; also called humanized antibody H5L14
- EC50 (Human IL12 (His Tag) [1]): 0.532 µg/mL
- MFI (Human IL12 (His Tag) [2]): 146 MFI
- MFI (Human IL12 (His Tag) [3]): 51.9 MFI
- MFI (Human IL12 (His Tag) [4]): 66 MFI
- EC50 (human p40-His [6]): 0.107 nM

B4: H5L12 (antibody, human IgG1, kappa, V domains shown)
VH: EVQLVQSGAEVKKPGESLKISCQSSGYSFTTYWIGWVRQMPGQGLEWIGIMSPVDSDIRYNPMFRGQVTMSVDKSSSTAYLQWSSLKASDTAMYYCARRRPGQGYFDFWGQGTMVTVSS
VL: EIVLTQSPATLSASPGERATISCRASQSVSSWLAWYQQKPGQAPRSLIYAASNRQSGIPARFSGSGSGTDFTLTISSLEPEDFAVYYCQQYNIYPYTFGQGTRLEIKR
notes: human IgG1 / kappa constant regions; also called humanized antibody H5L12
- EC50 (Human IL12 (His Tag) [1]): 0.317 µg/mL
- MFI (Human IL12 (His Tag) [2]): 133 MFI
- MFI (Human IL12 (His Tag) [3]): 31.8 MFI
- MFI (Human IL12 (His Tag) [4]): 38.5 MFI
- EC50 (human p40-His [6]): 0.082 nM

B5: H5L11 (antibody, human IgG1, kappa, V domains shown)
VH: EVQLVQSGAEVKKPGESLKISCQSSGYSFTTYWIGWVRQMPGQGLEWIGIMSPVDSDIRYNPMFRGQVTMSVDKSSSTAYLQWSSLKASDTAMYYCARRRPGQGYFDFWGQGTMVTVSS
VL: EIVLTQSPATLSASPGERATISCRASQSVSSWLAWYQQKPGQAPRSLIYSASNLQSGIPARFSGSGSGTDFTLTISSLEPEDFAVYYCQQYNIYPYTFGQGTRLEIKR
notes: human IgG1 / kappa constant regions; also called humanized antibody H5L11
- EC50 (Human IL12 (His Tag) [1]): 0.414 µg/mL
- MFI (Human IL12 (His Tag) [2]): 145 MFI
- MFI (Human IL12 (His Tag) [3]): 42.2 MFI
- MFI (Human IL12 (His Tag) [4]): 54.3 MFI
- EC50 (human p40-His [6]): 0.082 nM

B6: ustekinumab (antibody, V domains shown)
VH: EVQLVQSGAEVKKPGESLKISCKGSGYSFTTYWLGWVRQMPGKGLDWIGIMSPVDSDIRYSPSFQGQVTMSVDKSITTAYLQWNSLKASDTAMYYCARRRPGQGYFDFWGQGTLVTVSS
VL: DIQMTQSPSSLSASVGDRVTITCRASQGISSWLAWYQQKPEKAPKSLIYAASSLQSGVPSRFSGSGSGTDFTLTISSLQPEDFATYYCQQYNIYPYTFGQGTKLEIK
- EC50 (Human IL12 (His Tag) [1]): 0.377 µg/mL
- MFI (Human IL12 (His Tag) [2]): 137 MFI
- MFI (Human IL12 (His Tag) [3]): 29.7 MFI
- MFI (Human IL12 (His Tag) [4]): 31.9 MFI
- EC50 (human p40-His [7]): 0.077 nM
